Test results published in article PMC3110755, “Inhibition of Cell Proliferation by an Anti-EGFR Aptamer”.
Positions count from the first letter of the chain named.

B1: E03 (ssRNA)
RNA: GGCGCUCCGACCUUAGUCUCUGUGCUAGUAUAUCGCACGGAUUUAAUCGCCGUAGAAAAGCAUGUCAAAGCCGGAACCGUGUAGCACAGCAGA
modifications: 2'-F pyrimidines
B2: E07 (ssRNA)
RNA: B1 RNA with U26C, A27G, G28C, U33A, C34U
modifications: 2'-F pyrimidines

What was measured:
[1] = target: EGFR ectodomain-Fc (human) (Homo sapiens (Human), UniProt P00533 25-645); experiment: filter; DPBS, 5 mM MgCl2, 25 C, 30 min; 0.1 nM RNA; conditions: tags: Fc fusion (R&D Systems); label: 5'-32P
[2] = target: ErbB2 (human) (Homo sapiens (Human), UniProt P04626 23-652); experiment: filter; 10 nM RNA, 100 nM protein, DPBS 5 mM MgCl2, 25 C; conditions: label: internal alpha-32P

| Binder | Kd [1] | binding result [2] |
| --- | --- | --- |
| B1 | ~2.45 nM | no binding |
| B2 | – | no binding |
